In publication PMC10157173 (Frontiers in Immunology, 2023):
Values belong to the binder of their own block, whether it stands above or below them.

Experiments:
[1] = biological target: T1, His-tagged recombinant human HER3 ECD (Homo sapiens (Human)., UniProt P21860); experiment: ELISA; direct ELISA: His-tagged EGFR, HER2 or HER3 coated at 800 ng/ml in PBS on Maxisorp plates; two-fold or ten-fold dilutions of BiXAb™ or 1MAbs in PBS, 37°C, 1 h; detected with peroxidase-conjugated anti-human Fc; details: both partners purified
T1 construct: human HER3, extracellular domain (ECD); see the supplier's catalogue entry; also called HER3-His; source: bought: Sino Biological Inc (#10201-H08H)

[2] = biological target: T2, His-tagged recombinant human EGFR ECD (Homo sapiens (Human)., UniProt P00533); experiment: as above; details: both partners purified
T2 construct: human EGFR, extracellular domain (ECD); see the supplier's catalogue entry; also called EGFR-His; source: bought: Sino Biological Inc (#10001-H08H)

- binding result [1]: binds
B1: elgemtumab (antibody, V domains shown)
VH: EVQLLESGGGLVQPGGSLRLSCAASGFTFSSYAMSWVRQAPGKGLEWVSAINSQGKSTYYADSVKGRFTISRDNSKNTLYLQMNSLRAEDTAVYYCARWGDEGFDIWGQGTLVTVSS
VL: DIQMTQSPSSLSASVGDRVTITCRASQGISNWLAWYQQKPGKAPKLLIYGASSLQSGVPSRFSGSGSGTDFTLTISSLQPEDFATYYCQQYSSFPTTFGQGTKVEIK
notes: heavy chain of elgemtumab; light chain of elgemtumab; also called 3Elgem; anti-HER3 mAb; source: cloning, production and purification of mAbs at Icosagen; copies: 2 + 2

- binding result [1]: binds
B2: patritumab (antibody, V domains shown)
VH: QVQLQQWGAGLLKPSETLSLTCAVYGGSFSGYYWSWIRQPPGKGLEWIGEINHSGSTNYNPSLKSRVTISVETSKNQFSLKLSSVTAADTAVYYCARDKWTWYFDLWGRGTLVTVSS
VL: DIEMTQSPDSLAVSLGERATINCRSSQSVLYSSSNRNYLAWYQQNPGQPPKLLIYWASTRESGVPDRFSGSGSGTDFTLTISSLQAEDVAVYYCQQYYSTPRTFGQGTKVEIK
notes: heavy chain of patritumab; light chain of patritumab; also called 3Patri; anti-HER3 mAb; source: cloning, production and purification of mAbs at Icosagen; copies: 2 + 2

- binding result [2]: binds
B3: matuzumab (antibody, V domains shown)
VH: QVQLVQSGAEVKKPGASVKVSCKASGYTFTSHWMHWVRQAPGQGLEWIGEFNPSNGRTNYNEKFKSKATMTVDTSTNTAYMELSSLRSEDTAVYYCASRDYDYDGRYFDYWGQGTLVTVSS
VL: DIQMTQSPSSLSASVGDRVTITCSASSSVTYMYWYQQKPGKAPKLLIYDTSNLASGVPSRFSGSGSGTDYTFTISSLQPEDIATYYCQQWSSHIFTFGQGTKVEIK
notes: heavy chain of matuzumab; light chain of matuzumab; also called 1Matu; anti-EGFR mAb; source: cloning, production and purification of mAbs at Icosagen; matuzumab also donated by Merck AG; copies: 2 + 2
